Measurements from IntAct's records for PubMed 22986341.

B1: Wnt inhibitory factor 1 (Homo sapiens), Q9Y5W5 (parent)
chain: MARRSAFPAAALWLWSILLCLLALRAEAGPPQEESLYLWIDAHQARVLIGFEEDILIVSEGKMAPFTHDFRKAQQRMPAIPVNIHSMNFTWQAAGQAEYFYEFLSLRSLDKGIMADPTVNVPLLGTVPHKASVVQVGFPCLGKQDGVAAFEVDVIVMNSEGNTILQTPQNAIFFKTCQQAECPGGCRNGGFCNERRICECPDGFHGPHCEKALCTPRCMNGGLCVTPGFCICPPGFYGVNCDKANCSTTCFNGGTCFYPGKCICPPGLEGEQCEISKCPQPCRNGGKCIGKSKCKCSKGYQGDLCSKPVCEPGCGAHGTCHEPNKCQCQEGWHGRHCNKRYEASLIHALRPAGAQLRQHTPSLKKAEERRDPPESNYIW
B2: Wnt inhibitory factor 1 (Homo sapiens), Q9Y5W5 (parent)
chain: B1 chain
partner: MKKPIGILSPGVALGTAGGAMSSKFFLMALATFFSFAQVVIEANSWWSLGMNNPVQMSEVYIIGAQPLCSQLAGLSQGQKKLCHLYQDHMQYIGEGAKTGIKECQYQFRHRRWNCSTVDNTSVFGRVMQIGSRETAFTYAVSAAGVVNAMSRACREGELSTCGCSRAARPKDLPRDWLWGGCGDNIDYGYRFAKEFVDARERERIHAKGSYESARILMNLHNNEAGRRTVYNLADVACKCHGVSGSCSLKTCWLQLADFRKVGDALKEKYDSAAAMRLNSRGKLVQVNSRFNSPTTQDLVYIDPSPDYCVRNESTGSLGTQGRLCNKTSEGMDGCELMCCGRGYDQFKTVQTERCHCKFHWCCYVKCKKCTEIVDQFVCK

Variants of: B1
Details: with wnt3a_mouse Wnt3a

Row | effect of a mutation on the interaction | Variant
1 | decreasing interaction | W15R

Variants of: B2
Details: with wnt5a_mouse Wnt5a

Row | effect of a mutation on the interaction | Variant
2 | increasing interaction | W15R
